Measured values: US20160152729A1 (Novo Nordisk, published 2016)

What was measured:
human TFPIα [1] = target: T1, human TFPIα (human, UniProt P10646 29-304); assay: cell-based or functional assay
human TFPIα [2] = target: T1, human TFPIα; assay: cell-based or functional assay; remark: listed apart in the source
human TFPIα [3] = target: T1, human TFPIα; assay: cell-based or functional assay; remark: listed apart in the source
human TFPIα [4] = target: T1, human TFPIα; assay: cell-based or functional assay; remark: listed apart in the source
human TFPIα [5] = target: T1, human TFPIα; assay: cell-based or functional assay; remark: listed apart in the source
human TFPIα [6] = target: T1, human TFPIα; assay: SPR Biacore T200; mAb captured on anti-mouse Ig; TFPI as analyte; 1:1 model
Excerpt: (§1) Binding interaction data were obtained by means of Surface Plasmon Resonance in a Biacore T200 instrument. Polyclonal rabbit anti-mouse immunoglobulin (Mouse Antibody Capture Kit, GE Healthcare) was immobilized to a series S CM4 sensor chip (GE Healthcare) in flow-cells 1-4 using the amine coupling protocol available with the Biacore T-200 control software version 2.0 (GE Healthcare) and the reagents provided with the Amine Coupling Kit (GE Healthcare). The relevant mouse monoclonal antibody was captured in flow cell 2, 3, or 4 at a fixed concentration. Different concentrations of human TFPIα or TFPI (1-79) were tested by diluting the sample in running buffer (10 mM HEPES, pH 7.4, 300 mM NaCl, 5 mM CaCl₂, 0.05% Surfactant P20, 1 mg/ml BSA). Each sample was assayed using 300 seconds of contact time followed by 420-600 seconds of dissociation time at 30 μl/min flow rate. A buffer blank was also assayed. The sensor surface was regenerated with 10 mM Glycine pH 1.7 either for 180 sec at 30 μl/min flow rate or with two cycles each of 30 seconds at 30 μl/min flow rate.
(§2) The Biacore T200 Evaluation software (version 2.0) was used to analyse the data. Determination of binding constants (kₐ, kd, KD) was obtained assuming a 1:1 interaction of TFPI and the monoclonal antibody of interest.

human TFPI (1-79) = target: T2, human TFPI (1-79) (human, UniProt P10646 29-107); assay: as above
T2 construct: Acidic N-terminal region and KPI-1 domain
Excerpt: as §1, §2

human TFPIα [7] = target: T1, human TFPIα; assay: SPR Biacore T200; Fab captured on Human Fab Binder; TFPIα as analyte; 1:1 model; 25 °C
Description: Human Fab Binder (Human Fab Capture Kit, GE Healthcare) was immobilized to a series S CM4 sensor chip (GE Healthcare) in flow-cells 1-4 at 9000-10000 response units (RU) using the amine coupling protocol available within the Biacore T-200 control software (GE Healthcare) and the reagents provided with the Amine Coupling Kit (GE Healthcare). […] Different concentrations of human TFPIα were tested by diluting the sample in running buffer (10 mM HEPES, pH 7.4, 300 mM NaCl, 5 mM CaCl₂, 0.05% Surfactant P20, 1 mg/ml BSA). Each sample was assayed using 300 seconds of contact time followed by 600 seconds of dissociation time at 50 μl/min flow rate. A buffer blank was also assayed. The sensor surface was regenerated with 10 mM Glycine pH 2.1 with two cycles each of 30 seconds at 50 μl/min flow rate. The analysis temperature was 25° C. and the sample compartment temperature 10° C.
as §2

Binder | Thrombin peak height (Peak); thrombin generation in FVIII-neutralised plasma + 5 nM TFPIα, 10 nM antibody (human TFPIα [1]) [nM] | Thrombin peak height (Peak); thrombin generation in FVIII-neutralised plasma, no TFPIα added (plasma TFPI), 10 nM antibody (human TFPIα [1]) [nM] | time to peak (ttPeak); thrombin generation in FVIII-neutralised plasma + 5 nM TFPIα, 10 nM antibody (human TFPIα [1]) [min] | time to peak (ttPeak); thrombin generation in FVIII-neutralised plasma, no TFPIα added (plasma TFPI), 10 nM antibody (human TFPIα [1]) [min] | Thrombin peak height (Peak); thrombin generation in FVIII-neutralised plasma + 20 nM TFPIα, 200 nM antibody (human TFPIα [2]) [nM] | FXa activity (%); remaining FXa amidolytic activity after 40 min, 32 nM mAb pre-incubated with 8 nM TFPIα (human TFPIα [3]) [%] | FVIIa/sTF activity (%); 150 nM TFPIα, 200 nM antibody (human TFPIα [4]) [%] | FXa activity (%) after 100 min incubation; 4 nM TFPIα, 20 nM antibody (human TFPIα [4]) [%] | FXa activity (%); FXa generated after 30 min by FVIIa/Innovin/FX with 4 nM TFPIα, 64 nM antibody (human TFPIα [5]) [%] | Kd (human TFPIα [6]) [nM] | Kd (human TFPI (1-79)) [nM] | koff (human TFPIα [6]) [s⁻¹] | kon (human TFPIα [6]) [M⁻¹ s⁻¹] | koff (human TFPI (1-79)) [s⁻¹] | kon (human TFPI (1-79)) [M⁻¹ s⁻¹] | Kd (human TFPIα [7]) [nM]
mAb 2F22 (antibody, IgG1, V domains shown, Murine mIgG1, kappa light chain) VH: QVQLKQSGPGLVQPSQSLSITCTVSGFSLTNYGVHWVRQSPGKGLEWLAVIWRGGSIDYNAAFMSRLSITKDNSKSQVFFKMNSLQADDTAIYYCAKNSHGNYVGYAMDYWGQGTSVTVSS VL: GIVMTQSQKFMSTTVGDRVSITCKASQSVGPAVAWYQQKPGQSPKLLIYSASNRYTGVPDRFTGSGSGADFTLTISNLHSEDLADYFCQQYTSYPTFGGGTKLEIKR | 46.5 | 100 | 11.3 | 9.1 | 23.7 | 50.4 | 88.3 | 60.8 | 40.5 | 0.688 | 0.965 |  |  |  |  | 
mAb 2F3 (antibody, IgG1, V domains shown, Murine mIgG1, kappa light chain) VH: QVQLKQSGPGLVQPSQSLSITCTVSGFSLSSYGVHWVRQSPGKGLEWLGVIWRGGSTDFNAAFMSRVSFTKDNSKSQVFFKMNSLQADDTAIYYCAKNSHGNYVGYAMDYWGQGTSVTVSS VL: DIVMTQSQKFMSTTVGDKVSIPCKASENVGAAVAWYQQKPGQSPTLLIYSASNRYTGIPDRFTGSGSGTDFTLTIRTVQSEDLADYFCQQYTNYPTFGGGTKLEIKR | 28.6 | 88.4 | 13.8 | 9.3 | 20.9 | 48.9 | 88.6 | 58.1 | 36.6 | 0.448 | 0.561 | 7.69e-05 | 172000 | 0.000154 | 274000 | 
Fab 0295 (Fab, V domains shown, Chimeric Fab of mAb 2F22; heavy chain truncated after the first cysteine of the human IgG4 hinge) VH: QVQLKQSGPGLVQPSQSLSITCTVSGFSLTNYGVHWVRQSPGKGLEWLAVIWRGGSIDYNAAFMSRLSITKDNSKSQVFFKMNSLQADDTAIYYCAKNSHGNYVGYAMDYWGQGTSVTVSS VL: GIVMTQSQKFMSTTVGDRVSITCKASQSVGPAVAWYQQKPGQSPKLLIYSASNRYTGVPDRFTGSGSGADFTLTISNLHSEDLADYFCQQYTSYPTFGGGTKLEIKR |  |  |  |  |  |  |  |  |  |  |  |  |  |  |  | 0.41
Fab 0296 (Fab, V domains shown, Chimeric Fab of mAb 2F22; heavy chain truncated after the human IgG4 hinge lysine; also called anti-TFPI2F22 Fab) VH: QVQLKQSGPGLVQPSQSLSITCTVSGFSLTNYGVHWVRQSPGKGLEWLAVIWRGGSIDYNAAFMSRLSITKDNSKSQVFFKMNSLQADDTAIYYCAKNSHGNYVGYAMDYWGQGTSVTVSS VL: GIVMTQSQKFMSTTVGDRVSITCKASQSVGPAVAWYQQKPGQSPKLLIYSASNRYTGVPDRFTGSGSGADFTLTISNLHSEDLADYFCQQYTSYPTFGGGTKLEIKR |  |  |  |  |  |  |  |  |  |  |  |  |  |  |  | 0.72
mAb 2F35 (antibody, IgG1, V domains shown, Murine mIgG1, kappa light chain) VH: EVQLQQSGAELVRPGALVKLSCKASGFNIKDYYIHWVKQRPEQGLEWIGWIDPENGNTIFDPKFQGRASITADTSSNTAYLQLSSLTSEDTAVYYCAGRWYAMDYWGQGTSVTVSS VL: not shown | 3.6 | 30.4 | 70.3 | 9.6 | 0 | 13.4 | 61.4 | 4.2 | 18.3 | 6.27 | 13.3 | 0.00141 | 224000 | 0.00251 | 188000 | 
mAb 1F56 (antibody, V domains shown, murine antibody from hybridoma) VH: DVQLQESGPGLVKPSQSLSLTCTVSGYSITSDYAWNWIRQFPGNKLEWMGYISYSGSTSYNPSLKSRISITRDTSKNQFFLQLNSVTTEDTATYYCARWAYDGPWGQGTLVTVSA VL: QIVLSQSPALLSASPGEKVTMTCRASSSVSHMHWYQQKPGSSPKPWIYATSNLASGVPARFSGSGSGTSYSLTITRVEAEDAATYYCQQWSSNPFTFGSGTKLEIKR | 3.7 | 35.2 | 47.8 | 8.9 |  | 5.5 |  |  | 18.4 | 9.81 | 13.5 | 0.00361 | 368000 | 0.00505 | 375000 | 
mAb 1F91 (antibody, IgG1, V domains shown, Murine mIgG1, kappa light chain) VH: DVQLQESGPGLVKPSQSLSLTCTVSGYSITSDYAWNWIRQFPGNKLEWMGYISYSGSTSYNPSLKSRISITRDTSKNQFFLQLNSVTTEDTATYYCARWAYDGPWGQGTLVTVSA VL: QIVLSQSPALLSASPGEKVTMTCRASSSVSHMHWYQQKPGSSPKPWIYATSNLASGVPARFSGSGSGTSYSLTITRVEAEDAATYYCQQWSSNPFTFGSGTKLEIKR | 3.6 | 34.6 | 51.8 | 9 | 0 | 5.8 | 82.2 | 5.1 | 13.9 | 10 | 15.1 | 0.00349 | 347000 | 0.005 | 330000 | 
